Assay results taken from patent US11833164B2, “Methods of treating Fabry disease in patients having a mutation in the GLA gene” (Amicus Therapeutics, Inc., priority 2019, dated 2023).

B1: A350S (protein)
chain: MQLRNPELHLGCALALRFLALVSWDIPGARALDNGLARTPTMGWLHWERFMCNLDCQEEPDSCISEKLFMEMAELMVSEGWKDAGYEYLCIDDCWMAPQRDSEGRLQADPQRFPHGIRQLANYVHSKGLKLGIYADVGNKTCAGFPGSFGYYDIDAQTFADWGVDLLKFDGCYCDSLENLADGYKHMSLALNRTGRSIVYSCEWPLYMWPFQKPNYTEIRQYCNHWRNFADIDDSWKSIKSILDWTSFNQERIVDVAGPGGWNDPDMLVIGNFGLSWNQQVTQMALWAIMAAPLFMSNDLRHISPQAKALLQDKDVIAINQDPLGKQGYQLRQGDNFEVWERPLSGLAWSVAMINRQEIGGPRSYTIAVASLGKGVACNPACFITQLLPVKRKLGFYEWTSRLRSHINPTGTVLLQLENTMQMSLKDLL
B2: A350T (protein)
chain: MQLRNPELHLGCALALRFLALVSWDIPGARALDNGLARTPTMGWLHWERFMCNLDCQEEPDSCISEKLFMEMAELMVSEGWKDAGYEYLCIDDCWMAPQRDSEGRLQADPQRFPHGIRQLANYVHSKGLKLGIYADVGNKTCAGFPGSFGYYDIDAQTFADWGVDLLKFDGCYCDSLENLADGYKHMSLALNRTGRSIVYSCEWPLYMWPFQKPNYTEIRQYCNHWRNFADIDDSWKSIKSILDWTSFNQERIVDVAGPGGWNDPDMLVIGNFGLSWNQQVTQMALWAIMAAPLFMSNDLRHISPQAKALLQDKDVIAINQDPLGKQGYQLRQGDNFEVWERPLSGLAWTVAMINRQEIGGPRSYTIAVASLGKGVACNPACFITQLLPVKRKLGFYEWTSRLRSHINPTGTVLLQLENTMQMSLKDLL
B3: A350V (protein)
chain: MQLRNPELHLGCALALRFLALVSWDIPGARALDNGLARTPTMGWLHWERFMCNLDCQEEPDSCISEKLFMEMAELMVSEGWKDAGYEYLCIDDCWMAPQRDSEGRLQADPQRFPHGIRQLANYVHSKGLKLGIYADVGNKTCAGFPGSFGYYDIDAQTFADWGVDLLKFDGCYCDSLENLADGYKHMSLALNRTGRSIVYSCEWPLYMWPFQKPNYTEIRQYCNHWRNFADIDDSWKSIKSILDWTSFNQERIVDVAGPGGWNDPDMLVIGNFGLSWNQQVTQMALWAIMAAPLFMSNDLRHISPQAKALLQDKDVIAINQDPLGKQGYQLRQGDNFEVWERPLSGLAWVVAMINRQEIGGPRSYTIAVASLGKGVACNPACFITQLLPVKRKLGFYEWTSRLRSHINPTGTVLLQLENTMQMSLKDLL
B4: M353K (protein)
chain: MQLRNPELHLGCALALRFLALVSWDIPGARALDNGLARTPTMGWLHWERFMCNLDCQEEPDSCISEKLFMEMAELMVSEGWKDAGYEYLCIDDCWMAPQRDSEGRLQADPQRFPHGIRQLANYVHSKGLKLGIYADVGNKTCAGFPGSFGYYDIDAQTFADWGVDLLKFDGCYCDSLENLADGYKHMSLALNRTGRSIVYSCEWPLYMWPFQKPNYTEIRQYCNHWRNFADIDDSWKSIKSILDWTSFNQERIVDVAGPGGWNDPDMLVIGNFGLSWNQQVTQMALWAIMAAPLFMSNDLRHISPQAKALLQDKDVIAINQDPLGKQGYQLRQGDNFEVWERPLSGLAWAVAKINRQEIGGPRSYTIAVASLGKGVACNPACFITQLLPVKRKLGFYEWTSRLRSHINPTGTVLLQLENTMQMSLKDLL
B5: A352S (protein)
chain: MQLRNPELHLGCALALRFLALVSWDIPGARALDNGLARTPTMGWLHWERFMCNLDCQEEPDSCISEKLFMEMAELMVSEGWKDAGYEYLCIDDCWMAPQRDSEGRLQADPQRFPHGIRQLANYVHSKGLKLGIYADVGNKTCAGFPGSFGYYDIDAQTFADWGVDLLKFDGCYCDSLENLADGYKHMSLALNRTGRSIVYSCEWPLYMWPFQKPNYTEIRQYCNHWRNFADIDDSWKSIKSILDWTSFNQERIVDVAGPGGWNDPDMLVIGNFGLSWNQQVTQMALWAIMAAPLFMSNDLRHISPQAKALLQDKDVIAINQDPLGKQGYQLRQGDNFEVWERPLSGLAWAVSMINRQEIGGPRSYTIAVASLGKGVACNPACFITQLLPVKRKLGFYEWTSRLRSHINPTGTVLLQLENTMQMSLKDLL
B6: A352T (protein)
chain: MQLRNPELHLGCALALRFLALVSWDIPGARALDNGLARTPTMGWLHWERFMCNLDCQEEPDSCISEKLFMEMAELMVSEGWKDAGYEYLCIDDCWMAPQRDSEGRLQADPQRFPHGIRQLANYVHSKGLKLGIYADVGNKTCAGFPGSFGYYDIDAQTFADWGVDLLKFDGCYCDSLENLADGYKHMSLALNRTGRSIVYSCEWPLYMWPFQKPNYTEIRQYCNHWRNFADIDDSWKSIKSILDWTSFNQERIVDVAGPGGWNDPDMLVIGNFGLSWNQQVTQMALWAIMAAPLFMSNDLRHISPQAKALLQDKDVIAINQDPLGKQGYQLRQGDNFEVWERPLSGLAWAVTMINRQEIGGPRSYTIAVASLGKGVACNPACFITQLLPVKRKLGFYEWTSRLRSHINPTGTVLLQLENTMQMSLKDLL
B7: V351A (protein)
chain: MQLRNPELHLGCALALRFLALVSWDIPGARALDNGLARTPTMGWLHWERFMCNLDCQEEPDSCISEKLFMEMAELMVSEGWKDAGYEYLCIDDCWMAPQRDSEGRLQADPQRFPHGIRQLANYVHSKGLKLGIYADVGNKTCAGFPGSFGYYDIDAQTFADWGVDLLKFDGCYCDSLENLADGYKHMSLALNRTGRSIVYSCEWPLYMWPFQKPNYTEIRQYCNHWRNFADIDDSWKSIKSILDWTSFNQERIVDVAGPGGWNDPDMLVIGNFGLSWNQQVTQMALWAIMAAPLFMSNDLRHISPQAKALLQDKDVIAINQDPLGKQGYQLRQGDNFEVWERPLSGLAWAAAMINRQEIGGPRSYTIAVASLGKGVACNPACFITQLLPVKRKLGFYEWTSRLRSHINPTGTVLLQLENTMQMSLKDLL
B8: V351E (protein)
chain: MQLRNPELHLGCALALRFLALVSWDIPGARALDNGLARTPTMGWLHWERFMCNLDCQEEPDSCISEKLFMEMAELMVSEGWKDAGYEYLCIDDCWMAPQRDSEGRLQADPQRFPHGIRQLANYVHSKGLKLGIYADVGNKTCAGFPGSFGYYDIDAQTFADWGVDLLKFDGCYCDSLENLADGYKHMSLALNRTGRSIVYSCEWPLYMWPFQKPNYTEIRQYCNHWRNFADIDDSWKSIKSILDWTSFNQERIVDVAGPGGWNDPDMLVIGNFGLSWNQQVTQMALWAIMAAPLFMSNDLRHISPQAKALLQDKDVIAINQDPLGKQGYQLRQGDNFEVWERPLSGLAWAEAMINRQEIGGPRSYTIAVASLGKGVACNPACFITQLLPVKRKLGFYEWTSRLRSHINPTGTVLLQLENTMQMSLKDLL
B9: M353L (protein)
chain: MQLRNPELHLGCALALRFLALVSWDIPGARALDNGLARTPTMGWLHWERFMCNLDCQEEPDSCISEKLFMEMAELMVSEGWKDAGYEYLCIDDCWMAPQRDSEGRLQADPQRFPHGIRQLANYVHSKGLKLGIYADVGNKTCAGFPGSFGYYDIDAQTFADWGVDLLKFDGCYCDSLENLADGYKHMSLALNRTGRSIVYSCEWPLYMWPFQKPNYTEIRQYCNHWRNFADIDDSWKSIKSILDWTSFNQERIVDVAGPGGWNDPDMLVIGNFGLSWNQQVTQMALWAIMAAPLFMSNDLRHISPQAKALLQDKDVIAINQDPLGKQGYQLRQGDNFEVWERPLSGLAWAVALINRQEIGGPRSYTIAVASLGKGVACNPACFITQLLPVKRKLGFYEWTSRLRSHINPTGTVLLQLENTMQMSLKDLL

System: mutant form of α-Gal A expressed in HEK-293 cells
Assay: HEK assay (GLP HEK / Migalastat Amenability Assay): α-Gal A activity in lysates of transiently transfected HEK-293 cells incubated with or without 10 μM migalastat
Type: cell-based, human
Conditions: for Absolute increase (% WT) / Relative increase: 10 μM migalastat versus baseline; for Baseline α-Gal A activity (% WT): absence of migalastat; for Baseline α-Gal A activity (% WT) / 10 μM migalastat α-Gal A activity (% WT): percentage of baseline wild-type α-Gal A activity; for Baseline α-Gal A activity (% WT) / Baseline α-Gal A activity / 10 μM migalastat α-Gal A activity / 10 μM migalastat α-Gal A activity (% WT): mean ± SEM; for Baseline α-Gal A activity / 10 μM migalastat α-Gal A activity: lysates of HEK-293 cells transiently transfected with the mutant form; for Baseline α-Gal A activity: incubated 5 days in absence of migalastat; for 10 μM migalastat α-Gal A activity: incubated 5 days with 10 μM migalastat; for 10 μM migalastat α-Gal A activity (% WT): with 10 μM migalastat, 5 days
Outline: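 HEK-293 cells transiently transfected with mutant α-Gal A and incubated with or without 10 μM migalastat; lysate activity given as nmol free 4-MU released per mg protein per hour. Values are mean±SEM.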

Molecule | Absolute increase (% WT) | Relative increase | Baseline α-Gal A activity (% WT) | Baseline α-Gal A activity [nmol/mg/h] | 10 μM migalastat α-Gal A activity [nmol/mg/h] | 10 μM migalastat α-Gal A activity (% WT)
B1 | 17.6 | 1.3 | 62.9 ± 4.2 | 26493 ± 1291 | 34474 ± 1484 | 80.5 ± 3.6
B2 | 14.4 | 1.3 | 47.4 ± 3.7 | 20227 ± 1499 | 26484 ± 1189 | 61.7 ± 2.7
B3 | 22.3 | 1.8 | 27.9 ± 0.9 | 12786 ± 654 | 22855 ± 1012 | 50.2 ± 1.6
B4 | 13.0 | 1.4 | 30.3 ± 1.8 | 13638 ± 804 | 19335 ± 946 | 43.4 ± 2.6
B5 | 12.1 | 1.2 | 52.8 ± 3.7 | 23476 ± 1901 | 28397 ± 1310 | 64.9 ± 2.5
B6 | 31.0 | 1.9 | 37.2 ± 2.1 | 15803 ± 777 | 29351 ± 1532 | 68.2 ± 3.2
B7 | 14.2 | 1.3 | 56.9 ± 4.7 | 24009 ± 1662 | 30218 ± 1531 | 71.1 ± 4.1
B8 | 7.2 | 1.7 | 10.5 ± 0.5 | 4760 ± 281 | 7910 ± 348 | 17.7 ± 1
B9 | 14.6 | 1.2 | 66.6 ± 2.7 | 30347 ± 1572 | 36987 ± 1768 | 81.2 ± 2.7
